According to patent US20240026407A1, “MODIFICATION OF SAPONINS” (GLAXOSMITHKLINE BIOLOGICALS SA, priority 2020, published 2024):

Columns and labels:
Assay type in all cases: biochemical, Quillaja saponaria
[1] = Experiment 5-1: screening of additional glucosidases for deglycosylation with purified QS-18 (0.04 mg/ml) at pH 7.5 and 30 deg C; details: pH 7.5, 30 degrees C, 18 hours, LCMS/MS
Procedure: The 94 additional genes, together with positive control (DNA encoding SEQ ID No. 262) and negative control, were transformed, expressed, lysed and reacted in the same manner as described above for Experiment 4-1, except the reaction was incubated at 30 degrees C. for 18 hours.
Samples were analysed by LCMS/MS according to the procedure in Experiment 4-1.

[2] = Experiment 5-3: screening of additional glucosidases for deglycosylation with QS-18 in treated bark extract (80%) at pH 6 and 35 deg C; details: TBE 80% (QS-21 approx. 4 g/L), pH 6, 35 deg C; UV HPLC
Procedure: Experiment 5-1 was repeated, replacing CBE with Treated Bark Extract (TBE) at pH 6. TBE was prepared from CBE by PVPP treatment and concentration, to provide TBE with a QS-21 concentration of approximately 4 g/L. TBE was adjusted to pH 6 by dropwise addition of 2M NaOH with stirring.

[3] = Experiment 5-2: screening of additional glucosidases for deglycosylation with QS-18 in crude bark extract (80%) at pH 6 and 35 deg C; details: CBE 80%, pH 6, 35 deg C, 18 hours; UV HPLC
Procedure, shortened: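 Deglycosylation of QS-18 was monitored by UV HPLC after MeCN/AcOH quench with hexanophenone. The reaction ran 18 hours at 35 deg C, shaking, combining clarified pH 6 lysate with crude bark extract neutralised to pH 6 by NaOH.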

| Molecule | Experiment 5-1 % conv [1] [%] | Experiment 5-3 % conv [2] [%] | Experiment 5-2 % conv [3] [%] |
| --- | --- | --- | --- |
| 825 (protein, listed as Bifidobacterium bohemicum) MSEQNSERKATLPQAKDLSVEEQSALTSGTNPWSIGRVEGKGLPNYTITDGPHGLRKARDLDGMDVDAAVPATCFPPAAGMSSSWNPELIKKTGEAMGEECVQEQVAVILGPGVNIKRNPLGGRCFEFWSEDPYLAGHEAIGEVEGIQSKGIGTSLKHFAANNQETDRLRVNARISERAMREIYLPAFEHIIKNAQPWTVMCSYNRINGEYASQNSWLLTDVLRKEWGFKGIVMSDWGAVHDRAAALNAGLNLEMPPTHTDDKIVQAVRDGQVKPEQLEAMSQGMIDLVAKTQPAMEKGAAGYRYDVDEHDEIAREAAREAMVLLKNEDGLLPVKPGTKLAVIGEFARTPRYQGAGSSLINPNKLTSFLDALKDRGVEAEFAPGFTLDGDEQSQELTDEAVNAAESADTVLLFIGLPAEAESEGFDRTTLDIPAKQIEVLKAVSAVNKNVVVILSNGSVVSMPWADQAKSILECWLLGQAGGAATADVVFGDVNPSGKLAQTIVNNLDDDPSMLNWPGEEGHVDYGEGVFVGYRYYDSFHKAVTYPFGYGLSYTTFDISEVNAQKSGPQSVHVTAMVTNTGSMAGAEVVQVYVAPPACRVDRPVHELKAFKKVFLEPGQSQEVSFDLDSRAFAYWSERFEDWKVEGGSYGIEVGDSSRSIAQTVPVQLDDDGKRMKLTKWSTYGEWREDPDGNKILDKVISELEAKYGHAIIPDSQLIIMFLKSAPLGGMSMVLGANEAQDICERALAEYAKIGR | 24.5 | <0.5 | <0.5 |
| 823 (protein, listed as Streptomyces fulvissimus) MAAASSTSNSKALRREAVDTALAALGLDDKTRLLAGQDLWSLPALPAIGLRSLVMSDGPIGVRGVRWTAADPSVALPSPTALAATWDPELARRAGRLLAQEARRKGVHVLLAPTVNLHRTPLGGRHFEAYSEDPYLTGEIGTGYVRGVQDGGVATTVKHFVANDAETDRFTVNNTVAPRPLRELYLAPFERIVRNAHPWGIMAAYNQVNGSTMTEHRYLQNAVLRGEWGFDGFIVSDWLAARTTVGAITGGLDAAMPGPRTVYGETLADAVRAGEVDEKIVDLAVRNILLLAARVGALESAPPAVPAAALPATVDGDALAREIARRSFVLVRNEVHDGADALPLAPGTTVALSGALARDARVLGGGSALVFPDHVVSPLDGLTAALPEGALTYAVGADPSDELAIAEAGFDLTAVCRDASGAVLATVPLPSGQIQWIGADLPDGVTHDTLDTVEITGTFTPRASGEHTFGTRGTGSFALTVDDRPLFDGTQDRAPGTDPLGAFFNEPVERGRLPLTEGAPVRVSLSHRPGPGTGHPLKGVAFSLVHLAPLRDPDELIAEAVEAARSADTAIVVVGTTERVESEGFDRTDLKLPGHQDALVHAVAAVNPRTVVVVNSGSPVELPWRNEVAAVLLSWFPGQEAGHALADVLRGQEEPGGRLPTTWPVALADVPVSATTPTNGELPYTEGVFIGYRAWEKAGTTPAYAFGHGLGYTTWEYEDVSATPDSVTVRVRNTGSRPGSDTVQIYLAPAPAPDAPERPARWLAGFARVTAAPGGSVEVTVPVEARAYQVWDEEAYGWKTVPGTYEVQAARSLADVRATTTVDITA | 23.1 | <0.5 | <0.5 |
| 882 (protein, listed as Acidipropionibacterium acidipropionici) MAESPIQSLSMRSLSTEQKAALTSGADFWHTESCAPLGLPAIMLTDGPHGLRKQTGSTDMLGLGSSVPATCFPPAVGLGSSWDVDLIHRVGAALGAEASIEGVAVLLGPAINIKRSPLCGRNFEYISEDPLVAGTLGAAMVEGIQSRAVGACVKHFAANNQETDRMRVSADVDPRALHEIYLRAFEQVVRRAEPWMVMCSYNRINGVPASQDHWLLTDLLRGQWGFDRVVVSDWGAVSDRVASLSAGLDLEMPGTAGRTDAQILAALASGTLDEETLDSAAARVVTLLRRAAVGAGEVSGPLDVDAHHRLAREAAARSIVLLRNEVQRSETTGDEGALLPLRPDARIAVIGAFAEQPRYQGAGSSRINPTRLDTALAEIRALASGEVSYSPGFRLTPESVGPAEELRRDAAEAASQAEVAVVFLGLGDDAESEGFDRTGIDLSADQLALLDDVLAANPNTVVVLSNGAVVALPFADRVPAILEAWLGGQAGGGGVADVLFGRVNPSGRLTETIPKRLADSPAYLDFPGEHGHVRYGEGIFVGYRWYDARELEVAFPFGHGLSYTTFSYGQASAALDEDGNITVRLPVTNTGAVAGREVVQAYVSLPGSAVQRPPRELKGFVVVEAEPGQTVEAEMLIRREDLAYWDLRIDRWRVEAGTYRIDVAASSRDIRSSVEVVVPDGDAPIPLNWDSTLGELMAHPVAGPALAQAMAGALEGFAGAGDLMPAGAMAQMAGSLPLRALLTLGGDAVTPETLNQLIVLANGSPRK | 31.4 | <0.5 | <0.5 |
| 824 (protein, listed as Pestalotiopsis fici) MMTTDIEAVLKSLTLEEKISLLAGQNFWETVPVPGKVPHIKTSDGPNGARGADFTGGTRAACFPAASNVAATFDLDIANRIGQALAEETQSKGARCLLAPTTCIHRHPLGGRNFESFSEDPLLSGKLASQVIQGVQSKGVAATIKHFAANEQETERMSVDETISERALREIYLRPFEIAVKEAKPWAVMTAYNCVNGEHCDSNAFNFKVLREEWGWKGLVMSDWGGTNSTAEALNAGLDLEMPGPTNRRKIPDVLAAIKEGKTTERAIDDRARAVLEFIDRLKAFEDPTIPPEQAINKPEHQALIREAGAKGCVLLKNDNGVLPLSKDKVKGKKVAVFGLAKTPLAHGGGSASVNAHYKIAPWDALQEAVGDSAELVYSQGAHTQRILLPIGEDKSAGSIVGLDGKPGFTLQVFDNATQAIEETTHGHPSSSISPLGSKATLYKILEFVGDFTPTESGSHYLGCTGLGLTQVYVNDKLVYDQQKASPDAMGFLFGAISEDEFTYPFTAGNAYRIRVRSLPPIDVPGLEILNGRSGVRLGLQLASEHDADLQGEAVALAKDADYALVFTGHDPQWETEGQDQESFNLPRKGTQDALISAVAKVNPNTVVINSTGVAIALPWLEQVSSLVHAGFPGQECGNSIVDVITGAVNPEGRLPMSFPKRLEDAPAYGNFPGEYVNGQLKVEYKEGVFVGYRHYDRIGRDKVNFAFGHGLSYTTFATDSLRVSRKSETEFSASVNVTNTGKTQGGTLVQLYAGNATTSPEHPIKGLVAFKKIRLEPGQTQTVDLAVAARDLGFFDESRGQWVVPAGQYDFSLGESALDIIQTVKVAVEKELTSAP | 23.5 | <0.5 | <0.5 |
| 874 (protein, Bifidobacterium tsurumiense) MSEQTSSSTYPSVNDLSLEEKASLTSGGDAWHLQPIEERGIPGYMITDGPHGLRKTAGDTGAIDLEHTVPATCFPPAAGMSSTWNPELVEEVGQAMAEECIQEKVAVILGPGVNIKRNPLGGRCFEYWSEDPYLAGHEAVGIVKGVQSKGVGTSLKHFAVNNQETDRLRIDARVSQRALREIYLPAFEHIVKTAQPWTVMCAYNRINGVYAAQNRWLLTDVLRKEWGFKGIVMSDWGADHDRVASLNAGLNLEMPPSFTDDQIVSAARDGRISPKQLDDMAQGMIGLVNKTRQAMSVEDYRFDAQVHDDIARRAAAESMVLLKNDEHILPLSKNARVAVIGEFARTPRYQGGGSSHITPTQLTSLLDALQQRGIEYDFAPGFTLEDGEQEQSLVDEAVNIASKADAVVMCLGLPEYAESEGFDRTSLDIPAKQLELLSKVRESNANVVVLLSNGSVVSLTPWQDQAKAVVETWLLGQSGGGAIADMLFGDVNPSGKLSQTIPLNILDDPSMLNWPGEEGHVDYGEGVFVGYRYYDTYAKEVAYPFGFGLSYSDFSIDNVSVERTGANTACVRATVTNVSQTAGAQTVQIYVAPGRSEVARPVHELKGFAKVFLEAGESKEISIDLDERAFAYWSERFNDWHIEAGTYGIEVATSSRDIVERLDIELEGDGKSLPLNEWSNMSEWRKDPVGGPIVKRMFEEGRDGRIPALPENNLGAELFLDAMPINSMSVLLGKDGKVLTQFLLDEYAKETDGLH | 29.4 | <0.5 | <0.5 |
